Measurements taken from patent US20240261333A1 (published 2024).

Tests used:
Test in all cases: co-IP, anti-FLAG, lysate of cells with N-FLAG B3GNT2; mass spectrometry
PRRC2A = target: T1, PRRC2A (human, UniProt P48634 1-2157)
T1 construct: also called NP_004629.3 (+1)
Procedure: (§1) Cells were plated in 10-cm cell culture dishes and grown to 60-80% confluency. For each condition, two biological replicates were harvested for co-IP. Cells were washed with PBS and 4 mL of lysis buffer (20 mM HEPES, 1% Triton X-100, 150 mM NaCl, 1 mM EDTA, and 10% glycerol) containing protease inhibitor cocktail was added. Cells were scraped and lysate was incubated at 4° C. under rotary agitation for 1 h. Lysate was centrifuged at 14,000×g for 10 min at 4° C. Supernatant was transferred to a new tube and an aliquot was taken as the input. […] For Western blots, 10 μg/mL Chicken Anti-FLAG (Aves labs ET-DY100) and IgY control (R&D Systems AB-101-C) antibodies were biotinylated (Thermo Fisher Scientific 90407) and added to the respective conditions. Lysates with antibodies were incubated at 4° C. under rotary agitation overnight. For each mL of lysate, 50 μL of Pierce Protein A/G Magnetic Beads (Mass spectrometry; Thermo Fisher Scientific 88803) or Pierce Streptavidin Magnetic Beads (Western blot; Thermo Fisher Scientific 88817) was washed twice with lysis buffer. Lysates with antibodies were added to the beads and incubated at 4° C. under rotary agitation for 4 h. Beads were washed with lysis buffer 3 times and resuspended in lysis buffer for storage.
(§2) Magnetic beads were resuspended in 100 mM Tris pH 7.8, reduced, alkylated and digested with trypsin at 37° ° C. overnight. This solution was subjected to solid phase extraction to concentrate the peptides and remove unwanted reagents followed by injection onto a Shimadzu HPLC with fraction collector. Eight fractions were collected and after concentration were injected on a Waters NanoAcquity HPLC equipped with a self-packed Aeris 3 μm C18 analytical column 0.075 mm by 20 cm, (Phenomenex). Peptides were eluted using standard reverse-phase gradients. The effluent from the column was analyzed using a Thermo Orbitrap Elite mass spectrometer (nanospray configuration) operated in a data dependent manner for 54 minutes. The resulting fragmentation spectra were correlated against the known database using Proteome Discover 1.4 (Thermo Fisher Scientific).

NUFIP2 = target: T2, NUFIP2 (human, UniProt Q7Z417 1-695)
T2 construct: also called NP_065823.1
T2 sequence (looked up): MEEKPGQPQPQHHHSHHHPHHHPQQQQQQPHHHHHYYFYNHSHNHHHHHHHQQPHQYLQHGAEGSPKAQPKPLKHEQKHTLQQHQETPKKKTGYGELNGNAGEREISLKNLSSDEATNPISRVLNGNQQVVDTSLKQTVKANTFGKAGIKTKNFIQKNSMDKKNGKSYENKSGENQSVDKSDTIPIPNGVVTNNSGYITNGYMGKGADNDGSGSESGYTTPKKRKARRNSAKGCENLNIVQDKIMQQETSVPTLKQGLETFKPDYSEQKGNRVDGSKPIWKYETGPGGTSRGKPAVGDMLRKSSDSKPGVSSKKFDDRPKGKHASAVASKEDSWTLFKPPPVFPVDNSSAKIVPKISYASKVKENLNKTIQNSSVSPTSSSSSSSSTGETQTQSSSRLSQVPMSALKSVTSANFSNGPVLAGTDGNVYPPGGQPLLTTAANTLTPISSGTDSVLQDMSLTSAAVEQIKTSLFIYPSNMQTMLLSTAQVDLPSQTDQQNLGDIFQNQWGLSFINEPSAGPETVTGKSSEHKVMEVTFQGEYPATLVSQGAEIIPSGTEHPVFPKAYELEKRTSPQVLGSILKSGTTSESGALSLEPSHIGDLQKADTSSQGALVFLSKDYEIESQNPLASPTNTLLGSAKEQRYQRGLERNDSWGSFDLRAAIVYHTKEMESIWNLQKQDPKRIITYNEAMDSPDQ
Procedure: as §1, §2

SPTAN1 = target: T3, SPTAN1 (human, UniProt Q13813-2 1-2477, limits assumed)
T3 construct: also called NP_001123910.1 (+10)
Procedure: as §1, §2

EIF5B = target: T4, EIF5B (human, UniProt O60841 1-1220)
T4 construct: also called NP_056988.3
T4 sequence (looked up): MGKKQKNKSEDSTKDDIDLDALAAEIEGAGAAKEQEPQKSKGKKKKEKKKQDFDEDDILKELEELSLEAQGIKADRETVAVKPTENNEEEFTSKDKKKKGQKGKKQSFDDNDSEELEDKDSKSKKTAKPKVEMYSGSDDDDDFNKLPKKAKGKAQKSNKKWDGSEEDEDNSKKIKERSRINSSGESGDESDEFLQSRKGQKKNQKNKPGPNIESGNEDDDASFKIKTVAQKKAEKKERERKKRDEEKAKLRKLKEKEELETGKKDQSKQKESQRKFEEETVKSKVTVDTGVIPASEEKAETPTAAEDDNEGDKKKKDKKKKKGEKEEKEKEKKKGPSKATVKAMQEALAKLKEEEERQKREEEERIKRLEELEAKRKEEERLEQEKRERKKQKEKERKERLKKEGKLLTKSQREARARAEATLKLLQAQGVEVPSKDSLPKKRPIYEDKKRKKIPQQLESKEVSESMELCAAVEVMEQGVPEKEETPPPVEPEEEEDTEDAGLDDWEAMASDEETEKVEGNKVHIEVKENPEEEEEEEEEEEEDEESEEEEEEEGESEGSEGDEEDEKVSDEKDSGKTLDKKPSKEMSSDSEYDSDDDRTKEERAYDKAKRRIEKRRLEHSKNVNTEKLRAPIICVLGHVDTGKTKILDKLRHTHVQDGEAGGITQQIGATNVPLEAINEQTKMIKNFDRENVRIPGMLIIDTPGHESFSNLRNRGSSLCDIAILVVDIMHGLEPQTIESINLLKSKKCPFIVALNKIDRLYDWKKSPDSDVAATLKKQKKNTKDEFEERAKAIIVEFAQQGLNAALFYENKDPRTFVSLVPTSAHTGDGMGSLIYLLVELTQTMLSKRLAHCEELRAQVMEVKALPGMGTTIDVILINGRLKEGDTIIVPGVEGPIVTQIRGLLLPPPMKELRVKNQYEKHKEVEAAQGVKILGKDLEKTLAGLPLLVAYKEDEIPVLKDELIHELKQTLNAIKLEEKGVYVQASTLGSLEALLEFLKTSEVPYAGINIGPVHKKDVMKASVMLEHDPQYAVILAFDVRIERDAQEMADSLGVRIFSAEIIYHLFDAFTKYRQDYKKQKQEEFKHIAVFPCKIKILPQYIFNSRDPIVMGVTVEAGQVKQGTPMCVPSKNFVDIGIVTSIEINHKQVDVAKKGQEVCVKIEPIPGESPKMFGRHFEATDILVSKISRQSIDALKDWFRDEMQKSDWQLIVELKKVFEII
Procedure: as §1, §2

T1 sequence (P48634 whole entry): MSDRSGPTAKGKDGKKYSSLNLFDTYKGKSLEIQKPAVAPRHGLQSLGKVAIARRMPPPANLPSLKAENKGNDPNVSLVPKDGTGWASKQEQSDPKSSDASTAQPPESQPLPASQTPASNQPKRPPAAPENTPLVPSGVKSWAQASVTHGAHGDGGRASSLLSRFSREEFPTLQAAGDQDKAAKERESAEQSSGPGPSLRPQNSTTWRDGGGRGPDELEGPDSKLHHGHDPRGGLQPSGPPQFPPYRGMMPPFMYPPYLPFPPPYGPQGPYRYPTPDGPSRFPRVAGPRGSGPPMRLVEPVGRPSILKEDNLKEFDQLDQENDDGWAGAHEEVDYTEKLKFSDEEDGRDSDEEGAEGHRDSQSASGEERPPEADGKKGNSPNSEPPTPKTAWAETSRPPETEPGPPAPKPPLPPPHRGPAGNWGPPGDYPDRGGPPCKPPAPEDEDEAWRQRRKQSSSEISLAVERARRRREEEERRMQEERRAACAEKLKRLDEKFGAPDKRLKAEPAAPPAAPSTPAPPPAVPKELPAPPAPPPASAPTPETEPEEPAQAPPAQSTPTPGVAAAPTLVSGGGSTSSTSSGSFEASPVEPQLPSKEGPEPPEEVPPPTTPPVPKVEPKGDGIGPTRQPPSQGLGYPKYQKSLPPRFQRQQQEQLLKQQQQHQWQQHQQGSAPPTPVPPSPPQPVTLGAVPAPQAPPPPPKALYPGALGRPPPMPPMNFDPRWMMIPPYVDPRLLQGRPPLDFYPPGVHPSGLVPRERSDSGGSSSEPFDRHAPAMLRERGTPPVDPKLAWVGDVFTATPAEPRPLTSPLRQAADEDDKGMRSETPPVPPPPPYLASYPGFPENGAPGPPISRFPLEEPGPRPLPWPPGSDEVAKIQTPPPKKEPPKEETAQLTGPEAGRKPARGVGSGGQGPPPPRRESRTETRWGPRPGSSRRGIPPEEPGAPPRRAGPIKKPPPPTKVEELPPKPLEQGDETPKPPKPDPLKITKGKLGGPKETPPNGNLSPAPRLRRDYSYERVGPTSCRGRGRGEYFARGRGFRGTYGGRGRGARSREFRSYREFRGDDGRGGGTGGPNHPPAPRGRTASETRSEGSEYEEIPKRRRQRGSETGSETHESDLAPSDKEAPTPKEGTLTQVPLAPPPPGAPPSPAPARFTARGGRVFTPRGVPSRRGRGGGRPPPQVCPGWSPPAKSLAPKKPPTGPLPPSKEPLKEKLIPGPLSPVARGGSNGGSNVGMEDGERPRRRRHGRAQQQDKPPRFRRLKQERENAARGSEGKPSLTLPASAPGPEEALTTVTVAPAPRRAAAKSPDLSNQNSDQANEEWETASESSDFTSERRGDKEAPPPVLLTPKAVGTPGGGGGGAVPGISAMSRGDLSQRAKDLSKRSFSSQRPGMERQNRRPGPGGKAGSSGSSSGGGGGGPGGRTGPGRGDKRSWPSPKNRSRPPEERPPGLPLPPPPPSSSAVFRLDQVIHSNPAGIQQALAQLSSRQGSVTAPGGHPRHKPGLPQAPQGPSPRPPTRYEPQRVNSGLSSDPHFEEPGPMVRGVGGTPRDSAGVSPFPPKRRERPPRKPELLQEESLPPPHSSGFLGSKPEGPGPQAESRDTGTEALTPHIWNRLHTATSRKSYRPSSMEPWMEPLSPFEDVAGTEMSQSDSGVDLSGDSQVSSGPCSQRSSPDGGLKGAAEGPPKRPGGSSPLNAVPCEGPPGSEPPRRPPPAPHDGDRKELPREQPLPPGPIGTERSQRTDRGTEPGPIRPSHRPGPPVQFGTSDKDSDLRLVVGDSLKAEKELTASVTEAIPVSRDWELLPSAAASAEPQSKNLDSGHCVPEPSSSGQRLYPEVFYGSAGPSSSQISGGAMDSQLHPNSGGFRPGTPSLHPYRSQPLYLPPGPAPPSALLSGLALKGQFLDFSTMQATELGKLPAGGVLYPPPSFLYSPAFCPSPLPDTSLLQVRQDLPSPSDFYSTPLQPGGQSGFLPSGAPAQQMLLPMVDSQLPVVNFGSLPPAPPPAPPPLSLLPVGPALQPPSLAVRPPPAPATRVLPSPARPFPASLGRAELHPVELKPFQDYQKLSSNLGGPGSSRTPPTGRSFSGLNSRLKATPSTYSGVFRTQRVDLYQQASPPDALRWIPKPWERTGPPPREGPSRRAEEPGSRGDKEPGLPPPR

B1: N-terminal FLAG tagged B3GNT2 (enzyme, human, UniProt Q9NY97 1-397, looked up)
chain: MSVGRRRIKLLGILMMANVFIYFIMEVSKSSSQEKNGKGEVIIPKEKFWKISTPPEAYWNREQEKLNRQYNPILSMLTNQTGEAGRLSNISHLNYCEPDLRVTSVVTGFNNLPDRFKDFLLYLRCRNYSLLIDQPDKCAKKPFLLLAIKSLTPHFARRQAIRESWGQESNAGNQTVVRVFLLGQTPPEDNHPDLSDMLKFESEKHQDILMWNYRDTFFNLSLKEVLFLRWVSTSCPDTEFVFKGDDDVFVNTHHILNYLNSLSKTKAKDLFIGDVIHNAGPHRDKKLKYYIPEVVYSGLYPPYAGGGGFLYSGHLALRLYHITDQVHLYPIDDVYTGMCLQKLGLVPEKHKGFRTFDIEEKNKNNICSYVDLMLVHSRKPQEMIDIWSQLQSAHLKC
notes: Overexpressed in cells and pulled down from the lysate with mouse anti-FLAG antibody; also called N-FLAG B3GNT2; N-term FLAG; not shown: N-terminal FLAG tag
co-IP mass spectrometry count (PRRC2A): 2 | co-IP mass spectrometry count (NUFIP2): 3 | co-IP mass spectrometry count (SPTAN1): 0 | co-IP mass spectrometry count (EIF5B): 0
